This assay addresses HLA-A*02:01 (Homo sapiens, UniProt P04439, D140Y/D185E/D98H/E176V/E277Q/G131W/G231S/I119V/I121R/I166T/I218V/L300P/L318F/N151K/N90K/P208A/P217A/Q86G/Q94H/R138H/R169H/T345S). The assay can be described thus: MHC binding assay (UV-ligand exchange, β2m ELISA, peptide exchange yield). The conditions noted are these: binding of HLA-class I restricted peptides to HLA-A*02:01, UV-ligand exchange. In a few lines:
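Peptide-MHC complexes formed by UV-ligand exchange, cleaving a UV-sensitive placeholder peptide in favour of the test peptide. Exchange yield measured by ELISA: monomers diluted 100-fold onto streptavidin-coated plates, 1 h 37 °C, detected with 2 ug/ml HRP anti-β2m and TMB, absorbance at 450 nm.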
In general terms: In an ELISA, binding on a coated surface is turned into a signal by an enzyme label.
Take “302 (ALLQEGEVYSA; listed as Homo sapiens) [compound 302]”: the “Peptide exchange (MHC class I binding score, peptide exchange yield)” value (shortened to “Peptide exchange”) is ““+++” (≥50 = +++)”.

For “303 (AILPQLFMV; listed as Homo sapiens) [compound 303]”, the “Peptide exchange” value is on record as ““++++” (≥75% = ++++)”.

Take “304 (MTLGQIYYL; listed as Homo sapiens) [compound 304]”: the “Peptide exchange” value is listed as ““+++” (≥50 = +++)”.

As for “305 (SIANFSEFYV; listed as Homo sapiens) [compound 305]”, the “Peptide exchange” value is on record as ““++++” (≥75% = ++++)”.

With “306 (ALVNVQIPL; listed as Homo sapiens) [compound 306]”, the “Peptide exchange” value is recorded as ““+++” (≥50 = +++)”.

For “307 (ALPVSLPQI; listed as Homo sapiens) [compound 307]”, the “Peptide exchange” value is ““+++” (≥50 = +++)”.

Regarding “308 (SQYSGQLHEV; listed as Homo sapiens) [compound 308]”, the “Peptide exchange” value is ““+++” (≥50 = +++)”.

Regarding “309 (GLFDGVPTTA; listed as Homo sapiens) [compound 309]”, the “Peptide exchange” value is reported as ““+++” (≥50 = +++)”.

For “310 (FLVDTPLARA; listed as Homo sapiens) [compound 310]”, the “Peptide exchange” value is ““++++” (≥75% = ++++)”.

For the substance “311 (RLYTGMHTV; listed as Homo sapiens) [compound 311]”, the “Peptide exchange” value is on record as ““+++” (≥50 = +++)”.

Regarding “312 (IISDLTIAL; listed as Homo sapiens) [compound 312]”, the “Peptide exchange” value was ““+++” (≥50 = +++)”.

“313 (VLFDDELLMV; listed as Homo sapiens) [compound 313]”: the “Peptide exchange” value is ““+++” (≥50 = +++)”.

As for “314 (ALIAEGIALV; listed as Homo sapiens) [compound 314]”, the “Peptide exchange” value is reported as ““+++” (≥50 = +++)”.

In the case of “315 (YLQDVVEQA; listed as Homo sapiens) [compound 315]”, the “Peptide exchange” value is reported as ““+++” (≥50 = +++)”.

For the substance “316 (ILLERLWYV; listed as Homo sapiens) [compound 316]”, the “Peptide exchange” value is ““+++” (≥50 = +++)”.

In the case of “317 (SLAALVVHV; listed as Homo sapiens) [compound 317]”, the “Peptide exchange” value was ““+++” (≥50 = +++)”.

Turning to “318 (GLINTGVLSV; listed as Homo sapiens) [compound 318]”, the “Peptide exchange” value was ““++” (≥20% = ++)”.

Regarding “319 (SLEPQIQPV; listed as Homo sapiens) [compound 319]”, the “Peptide exchange” value is on record as ““++” (≥20% = ++)”.

On to “320 (KMFEFVEPLL; listed as Homo sapiens) [compound 320]”, for which the “Peptide exchange” value is ““++++” (≥75% = ++++)”.

As for “321 (GLFEDVTQPGILL; listed as Homo sapiens) [compound 321]”, the “Peptide exchange” value is listed as ““++++” (≥75% = ++++)”.

For “322 (TLMTSLPAL; listed as Homo sapiens) [compound 322]”, the “Peptide exchange” value is reported as ““+++” (≥50 = +++)”.

Regarding “324 (FLYDEIEAEV; listed as Homo sapiens) [compound 324]”, the “Peptide exchange” value is ““+++” (≥50 = +++)”.

In the case of “325 (FIMPATVADATAV; listed as Homo sapiens) [compound 325]”, the “Peptide exchange” value was ““+++” (≥50 = +++)”.

On to “326 (FLPEALDFV; listed as Homo sapiens) [compound 326]”, for which the “Peptide exchange” value is reported as ““+++” (≥50 = +++)”.

“327 (GLAPFTEGISFV; listed as Homo sapiens) [compound 327]”: the “Peptide exchange” value is given as ““+++” (≥50 = +++)”.

Consider “328 (ALNDQVFEI; listed as Homo sapiens) [compound 328]”, for which the “Peptide exchange” value is reported as ““+++” (≥50 = +++)”.

In the case of “329 (FLVTLNNVEV; listed as Homo sapiens) [compound 329]”, the “Peptide exchange” value is ““++++” (≥75% = ++++)”.

As to “330 (QLALKVEGV; listed as Homo sapiens) [compound 330]”, the “Peptide exchange” value was ““+++” (≥50 = +++)”.

On to “331 (KVDTVWVNV; listed as Homo sapiens) [compound 331]”, for which the “Peptide exchange” value was ““+++” (≥50 = +++)”.

For “332 (YLISELEAA; listed as Homo sapiens) [compound 332]”, the “Peptide exchange” value is ““+++” (≥50 = +++)”.

For the substance “333 (FLPDANSSV; listed as Homo sapiens) [compound 333]”, the “Peptide exchange” value is ““++” (≥20% = ++)”.

Take “334 (TLTKVLVAL; listed as Homo sapiens) [compound 334]”: the “Peptide exchange” value was ““+++” (≥50 = +++)”.

“335 (YSLSSVVTV; listed as Homo sapiens) [compound 335]”: the “Peptide exchange” value is reported as ““+++” (≥50 = +++)”.

“336 (ILLTAIVQV; listed as Homo sapiens) [compound 336]”: the “Peptide exchange” value is ““+++” (≥50 = +++)”.

As to “337 (HLLSELEAAPYL; listed as Homo sapiens) [compound 337]”, the “Peptide exchange” value is listed as ““++++” (≥75% = ++++)”.

For “339 (GLWEIENNPTVKA; listed as Homo sapiens) [compound 339]”, the “Peptide exchange” value was ““++++” (≥75% = ++++)”.

Take “340 (ALLSMTFPL; listed as Homo sapiens) [compound 340]”: the “Peptide exchange” value is listed as ““++++” (≥75% = ++++)”.

As to “341 (SQIALNEKLVNL; listed as Homo sapiens) [compound 341]”, the “Peptide exchange” value is ““+++” (≥50 = +++)”.

As to “342 (HIYDKVMTV; listed as Homo sapiens) [compound 342]”, the “Peptide exchange” value was ““+++” (≥50 = +++)”.

With “343 (SLLEVNEESTV; listed as Homo sapiens) [compound 343]”, the “Peptide exchange” value is on record as ““+++” (≥50 = +++)”.

For the substance “344 (YLQDQHLLLTV; listed as Homo sapiens) [compound 344]”, the “Peptide exchange” value was ““+++” (≥50 = +++)”.

“345 (VIWKALIHL; listed as Homo sapiens) [compound 345]”: the “Peptide exchange” value is ““+++” (≥50 = +++)”.

In the case of “346 (LLDSKVPSV; listed as Homo sapiens) [compound 346]”, the “Peptide exchange” value is reported as ““+++” (≥50 = +++)”.

Take “347 (SLFKHDPAAWEA; listed as Homo sapiens) [compound 347]”: the “Peptide exchange” value is recorded as ““++++” (≥75% = ++++)”.

Regarding “348 (ILLDVKTRL; listed as Homo sapiens) [compound 348]”, the “Peptide exchange” value is recorded as ““++++” (≥75% = ++++)”.

With “349 (SLTEYLQNV; listed as Homo sapiens) [compound 349]”, the “Peptide exchange” value is recorded as ““++++” (≥75% = ++++)”.

Turning to “350 (ALLDVTHSELTV; listed as Homo sapiens) [compound 350]”, the “Peptide exchange” value is reported as ““+++” (≥50 = +++)”.

In the case of “351 (SLIPNLRNV; listed as Homo sapiens) [compound 351]”, the “Peptide exchange” value is on record as ““+++” (≥50 = +++)”.

“352 (SLLELLHIYV; listed as Homo sapiens) [compound 352]”: the “Peptide exchange” value is given as ““+++” (≥50 = +++)”.

Regarding “353 (YLFEMDSSL; listed as Homo sapiens) [compound 353]”, the “Peptide exchange” value is listed as ““++” (≥20% = ++)”.

For the substance “354 (LILEGVDTV; listed as Homo sapiens) [compound 354]”, the “Peptide exchange” value is ““++” (≥20% = ++)”.

On to “355 (SIQQSIERLLV; listed as Homo sapiens) [compound 355]”, for which the “Peptide exchange” value is on record as ““++” (≥20% = ++)”.

As to “356 (KLLGKLPEL; listed as Homo sapiens) [compound 356]”, the “Peptide exchange” value is ““+++” (≥50 = +++)”.

In the case of “357 (SMHDLVLQV; listed as Homo sapiens) [compound 357]”, the “Peptide exchange” value was ““+++” (≥50 = +++)”.

With “358 (ALDEYTSEL; listed as Homo sapiens) [compound 358]”, the “Peptide exchange” value is ““++++” (≥75% = ++++)”.

Consider “359 (YLLPESVDL; listed as Homo sapiens) [compound 359]”, for which the “Peptide exchange” value was ““+++” (≥50 = +++)”.

As to “361 (ALYELEGTTV; listed as Homo sapiens) [compound 361]”, the “Peptide exchange” value is reported as ““+++” (≥50 = +++)”.

As to “362 (TLYGLSVLL; listed as Homo sapiens) [compound 362]”, the “Peptide exchange” value is ““+++” (≥50 = +++)”.

As to “363 (KVLDVSDLESV; listed as Homo sapiens) [compound 363]”, the “Peptide exchange” value is ““++” (≥20% = ++)”.

Take “364 (LLQNEQFEL; listed as Homo sapiens) [compound 364]”: the “Peptide exchange” value is given as ““+++” (≥50 = +++)”.

Turning to “365 (YVIDQGETDVYV; listed as Homo sapiens) [compound 365]”, the “Peptide exchange” value is ““+++” (≥50 = +++)”.

The values are drawn from US11230581B2, “Peptides and combination of peptides for use in immunotherapy against ovarian cancer and other cancers” (Immatics Biotechnologies GmbH, priority 2015, dated 2022).
